# Measured values: patent publication US20080090770A1 (published 2008)
# Where no end group is shown, it is not given here.
# B1: YGRKKRRQRRRAVAATSINL (SEQ ID NO: 138) (peptide)
# peptide: YGRKKRRQRRRAVAATSINL
# modifications: also: biotinylated, position not given here
# notes: TAT plus 9 residues; also called AVC#1791; AVC 1791
# B2: Flag-MUC1-CD(1-68) (other)
# chain: CQCRRKNYGQLDIFPARDTYHPMSEYPTYHTHGRYVPPSSTDRSPYEKVSAGNGGSSLSYTNPAVAAT
# notes: also called pIRESpuro2-Flag-MUC1-CD(1-68); truncated MUC1 cytoplasmic domain; not shown: Flag tag
# B3: MUC1 C-terminus peptide NGGSSLSYTNPAVAATSANL (SEQ ID NO: 96) (peptide)
# peptide: NGGSSLSYTNPAVAATSANL
# modifications: also: biotinylated, position not given here
# notes: also called C-terminus of MUC1; MUC1 peptide
# B4: YGRKKRRQRRRKNKDKEYYV (SEQ ID NO: 168) (peptide)
# peptide: YGRKKRRQRRRKNKDKEYYV
# modifications: also: biotinylated, position not given here
# notes: TAT plus 9 residues; also called AVC#1852
# B5: YGRKKRRQRRRARGDRLVSL (SEQ ID NO: 159) (peptide)
# peptide: YGRKKRRQRRRARGDRLVSL
# modifications: also: biotinylated, position not given here
# notes: TAT plus 9 residues; also called AVC#1843
# B6: YGRKKRRQRRRGMTSSSSVV (SEQ ID NO: 169) (peptide)
# peptide: YGRKKRRQRRRGMTSSSSVV
# modifications: also: biotinylated, position not given here
# notes: TAT plus 9 residues; also called AVC#1853
# B7: YGRKKRRQRRRARGTRLVWV (SEQ ID NO: 160) (peptide)
# peptide: YGRKKRRQRRRARGTRLVWV
# modifications: also: biotinylated, position not given here
# notes: TAT plus 9 residues; also called AVC#1844
# B8: YGRKKRRQRRRAVAATYSNL (SEQ ID NO: 139) (peptide)
# peptide: YGRKKRRQRRRAVAATYSNL
# modifications: also: biotinylated, position not given here
# notes: TAT plus 9 residues; also called AVC#1793
# B9: YGRKKRRQRRRSRTDRLEYV (SEQ ID NO: 162) (peptide)
# peptide: YGRKKRRQRRRSRTDRLEYV
# modifications: also: biotinylated (position not given here)
# notes: TAT plus 9 residues; also called AVC#1846
# B10: YGRKKRRQRRRSRTVREIWA (SEQ ID NO: 150) (peptide)
# peptide: YGRKKRRQRRRSRTVREIWA
# modifications: also: biotinylated (position not given here)
# notes: TAT plus 9 residues; also called AVC#1834
# B11: YGRKKRRQRRRSRTDRKYWA (SEQ ID NO: 148) (peptide)
# peptide: YGRKKRRQRRRSRTDRKYWA
# modifications: also: biotinylated (position not given here)
# notes: TAT plus 9 residues; also called AVC#1832
# B12: YGRKKRRQRRRSRTDRKYQI (SEQ ID NO: 155) (peptide)
# peptide: YGRKKRRQRRRSRTDRKYQI
# modifications: also: biotinylated (position not given here)
# notes: TAT plus 9 residues; also called AVC#1839
# B13: YGRKKRRQRRRQDERRLIVL (SEQ ID NO: 158) (peptide)
# peptide: YGRKKRRQRRRQDERRLIVL
# modifications: also: biotinylated (position not given here)
# notes: TAT plus 9 residues; also called AVC#1842
# B14: YGRKKRRQRRRAVAATGIWA (SEQ ID NO: 143) (peptide)
# peptide: YGRKKRRQRRRAVAATGIWA
# modifications: also: biotinylated, position not given here
# notes: TAT plus 9 residues; also called AVC#1827
# B15: YGRKKRRQRRRARGDVRLML (SEQ ID NO: 156) (peptide)
# peptide: YGRKKRRQRRRARGDVRLML
# modifications: also: biotinylated, position not given here
# notes: TAT plus 9 residues; also called AVC#1840
# B16: YGRKKRRQRRRARGDRKYIV (SEQ ID NO: 154) (peptide)
# peptide: YGRKKRRQRRRARGDRKYIV
# modifications: also: biotinylated, position not given here
# notes: TAT plus 9 residues; also called AVC#1838
# B17: YGRKKRRQRRRARGDRTIIY (SEQ ID NO: 164) (peptide)
# peptide: YGRKKRRQRRRARGDRTIIY
# modifications: also: biotinylated, position not given here
# notes: TAT plus 9 residues; also called AVC#1848
# B18: YGRKKRRQRRRARGDRRRIV (SEQ ID NO: 165) (peptide)
# peptide: YGRKKRRQRRRARGDRRRIV
# modifications: also: biotinylated, position not given here
# notes: TAT plus 9 residues; also called AVC#1849
# B19: YGRKKRRQRRRARSDRKRIV (SEQ ID NO: 167) (peptide)
# peptide: YGRKKRRQRRRARSDRKRIV
# modifications: also: biotinylated, position not given here
# notes: TAT plus 9 residues; also called AVC#1851
# B20: YGRKKRRQRRRARSDRTIIA (SEQ ID NO: 146) (peptide)
# peptide: YGRKKRRQRRRARSDRTIIA
# modifications: also: biotinylated, position not given here
# notes: TAT plus 9 residues; also called AVC#1830
# B21: YGRKKRRQRRRARGDRKIRV (SEQ ID NO: 152) (peptide)
# peptide: YGRKKRRQRRRARGDRKIRV
# modifications: also: biotinylated, position not given here
# notes: TAT plus 9 residues; also called AVC#1836
# B22: YGRKKRRQRRRARSDRKRIA (SEQ ID NO: 147) (peptide)
# peptide: YGRKKRRQRRRARSDRKRIA
# modifications: also: biotinylated, position not given here
# notes: TAT plus 9 residues; also called AVC#1831
# B23: YGRKKRRQRRRARSDRGIWA (SEQ ID NO: 142) (peptide)
# peptide: YGRKKRRQRRRARSDRGIWA
# modifications: also: biotinylated, position not given here
# notes: TAT plus 9 residues; also called AVC#1823
# B24: YGRKKRRQRRRARSDRTIWA (SEQ ID NO: 145) (peptide)
# peptide: YGRKKRRQRRRARSDRTIWA
# modifications: also: biotinylated, position not given here
# notes: TAT plus 9 residues; also called AVC#1829
# B25: YGRKKRRQRRRARGDRYRIV (SEQ ID NO: 161) (peptide)
# peptide: YGRKKRRQRRRARGDRYRIV
# modifications: also: biotinylated, position not given here
# notes: TAT plus 9 residues; also called AVC#1845
# B26: YGRKKRRQRRRARGDRKRWL (SEQ ID NO: 141) (peptide)
# peptide: YGRKKRRQRRRARGDRKRWL
# modifications: also: biotinylated, position not given here
# notes: TAT plus 9 residues; also called AVC#1822
# B27: YGRKKRRQRRRARGDRKRWA (SEQ ID NO: 140) (peptide)
# peptide: YGRKKRRQRRRARGDRKRWA
# modifications: also: biotinylated, position not given here
# notes: TAT plus 9 residues; also called AVC#1821
# B28: YGRKKRRQRRRARGDRLEIV (SEQ ID NO: 163) (peptide)
# peptide: YGRKKRRQRRRARGDRLEIV
# modifications: also: biotinylated, position not given here
# notes: TAT plus 9 residues; also called AVC#1847
# B29: YGRKKRRQRRRARGDRKKIV (SEQ ID NO: 166) (peptide)
# peptide: YGRKKRRQRRRARGDRKKIV
# modifications: also: biotinylated, position not given here
# notes: TAT plus 9 residues; also called AVC#1850
# B30: YGRKKRRQRRRARTDRKVEV (SEQ ID NO: 153) (peptide)
# peptide: YGRKKRRQRRRARTDRKVEV
# modifications: also: biotinylated, position not given here
# notes: TAT plus 9 residues; also called AVC#1837
# B31: YGRKKRRQRRRARGDRKVPV (SEQ ID NO: 157) (peptide)
# peptide: YGRKKRRQRRRARGDRKVPV
# modifications: also: biotinylated, position not given here
# notes: TAT plus 9 residues; also called AVC#1841
# B32: YGRKKRRQRRRQDERVETRV (SEQ ID NO: 171) (peptide)
# peptide: YGRKKRRQRRRQDERVETRV
# modifications: also: biotinylated (position not given here)
# notes: TAT plus 9 residues; also called AVC#1855
# B33: YGRKKRRQRRRQDEEETIWA (SEQ ID NO: 144) (peptide)
# peptide: YGRKKRRQRRRQDEEETIWA
# modifications: also: biotinylated (position not given here)
# notes: TAT plus 9 residues; also called AVC#1828
# B34: YGRKKRRQRRRQDEEEGIWS (SEQ ID NO: 149) (peptide)
# peptide: YGRKKRRQRRRQDEEEGIWS
# modifications: also: biotinylated, position not given here
# notes: TAT plus 9 residues; also called AVC#1833
# B35: YGRKKRRQRRRSVTSTSINL (SEQ ID NO: 151) (peptide)
# peptide: YGRKKRRQRRRSVTSTSINL
# modifications: also: biotinylated (position not given here)
# notes: TAT plus 9 residues; also called AVC#1835
# Target: T1, GST-RIM2 (KIAA0751) PDZ domain 1 (human)
# T1 construct: Construct RIM2, PDZ domain 1-pGEX-3X; vector sites BamH1/EcoR1, insert sites BglII/MfeI; also called GST-RIM2 PDZ domain; RIM3 (as printed once)
# Experiment: modified ELISA, peptide titration
# T1 sequence (chain, as listed by the source): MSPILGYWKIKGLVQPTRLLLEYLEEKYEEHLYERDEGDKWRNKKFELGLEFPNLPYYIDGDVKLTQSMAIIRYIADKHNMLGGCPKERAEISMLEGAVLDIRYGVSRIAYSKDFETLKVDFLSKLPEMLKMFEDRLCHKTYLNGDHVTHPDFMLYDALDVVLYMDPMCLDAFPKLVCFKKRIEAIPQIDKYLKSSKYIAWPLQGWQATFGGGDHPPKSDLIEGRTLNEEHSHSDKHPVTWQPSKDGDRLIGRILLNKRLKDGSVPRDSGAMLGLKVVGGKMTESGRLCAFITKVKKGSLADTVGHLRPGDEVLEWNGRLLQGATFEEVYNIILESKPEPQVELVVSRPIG
row,Binder,binding result
1,"YGRKKRRQRRRAVAAASANL (also: biotinylated, position not given here) [YGRKKRRQRRRAVAAASANL (SEQ ID NO: 135)]",binds

# Target: T1, GST-RIM2 (KIAA0751) PDZ domain 1
# Experiment: modified ELISA, GST-PDZ captured by anti-GST, biotinylated peptide titrated
row,Binder,EC50
1,B1,40 nM
2,"YGRKKRRQRRRARGDRKRIV (also: biotinylated, position not given here, also called AVC#1796; AVC 1796) [YGRKKRRQRRRARGDRKRIV (SEQ ID NO: 136)]",20 nM
3,"YGRKKRRQRRRQDEEEGIWA (also: biotinylated, position not given here, also called AVC#1790; AVC 1790) [YGRKKRRQRRRQDEEEGIWA (SEQ ID NO: 137)]",5 nM

# Target: T2, GST-ZO-1 PDZ domain 2 (human)
# T2 construct: also called ZO-1 d2; ZO1 d2
# Experiment: as above
# T2 sequence (chain, as listed by the source): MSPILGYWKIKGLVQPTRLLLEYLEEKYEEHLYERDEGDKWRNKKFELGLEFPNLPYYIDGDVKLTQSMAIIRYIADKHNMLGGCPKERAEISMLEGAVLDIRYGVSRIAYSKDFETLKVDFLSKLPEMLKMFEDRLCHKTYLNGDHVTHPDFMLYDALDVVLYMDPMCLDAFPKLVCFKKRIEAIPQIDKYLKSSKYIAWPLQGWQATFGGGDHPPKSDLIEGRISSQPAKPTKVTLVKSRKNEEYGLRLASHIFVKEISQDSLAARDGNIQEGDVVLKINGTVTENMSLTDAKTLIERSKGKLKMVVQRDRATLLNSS
row,Binder,EC50
1,B1,8 nM
2,"YGRKKRRQRRRARGDRKRIV (also: biotinylated, position not given here, also called AVC#1796; AVC 1796) [YGRKKRRQRRRARGDRKRIV (SEQ ID NO: 136)]",20 nM
3,"YGRKKRRQRRRQDEEEGIWA (also: biotinylated, position not given here, also called AVC#1790; AVC 1790) [YGRKKRRQRRRQDEEEGIWA (SEQ ID NO: 137)]",50 nM

# Target: T3, EGFR (UniProt P00533 25-1210)
# T3 construct: also called HER1
# Experiment: immunoprecipitation with anti-EGFR from lysates of transfected 293 cells, anti-MUC1-CD immunoblot
# Experimental: Lysates were subjected to immunoprecipitation with anti-EGFR or IgG as a control.
# Equal amounts of cell lysate were incubated with anti-EGFR (Santa Cruz Biotechnology, Santa Cruz, Calif.) or mouse IgG. […] Reactivity was detected with a horseradish peroxidase-conjugated second antibody and chemiluminescence.
row,Binder,binding result
1,B2,no binding

# Target: FGFR3 (UniProt P22607 23-806, limits assumed)
# Experiment: immunoprecipitation with anti-FGFR3 from lysates of transfected 293 cells, anti-MUC1-CD immunoblot
# Experimental: Lysates were subjected to immunoprecipitation with anti-FGFR3 or IgG as a control.
# Equal amounts of cell lysate were incubated with anti-FGFR3 or mouse IgG. […] Reactivity was detected with a horseradish peroxidase-conjugated second antibody and chemiluminescence.
# FGFR3, sequence (P22607 23-806 limits assumed): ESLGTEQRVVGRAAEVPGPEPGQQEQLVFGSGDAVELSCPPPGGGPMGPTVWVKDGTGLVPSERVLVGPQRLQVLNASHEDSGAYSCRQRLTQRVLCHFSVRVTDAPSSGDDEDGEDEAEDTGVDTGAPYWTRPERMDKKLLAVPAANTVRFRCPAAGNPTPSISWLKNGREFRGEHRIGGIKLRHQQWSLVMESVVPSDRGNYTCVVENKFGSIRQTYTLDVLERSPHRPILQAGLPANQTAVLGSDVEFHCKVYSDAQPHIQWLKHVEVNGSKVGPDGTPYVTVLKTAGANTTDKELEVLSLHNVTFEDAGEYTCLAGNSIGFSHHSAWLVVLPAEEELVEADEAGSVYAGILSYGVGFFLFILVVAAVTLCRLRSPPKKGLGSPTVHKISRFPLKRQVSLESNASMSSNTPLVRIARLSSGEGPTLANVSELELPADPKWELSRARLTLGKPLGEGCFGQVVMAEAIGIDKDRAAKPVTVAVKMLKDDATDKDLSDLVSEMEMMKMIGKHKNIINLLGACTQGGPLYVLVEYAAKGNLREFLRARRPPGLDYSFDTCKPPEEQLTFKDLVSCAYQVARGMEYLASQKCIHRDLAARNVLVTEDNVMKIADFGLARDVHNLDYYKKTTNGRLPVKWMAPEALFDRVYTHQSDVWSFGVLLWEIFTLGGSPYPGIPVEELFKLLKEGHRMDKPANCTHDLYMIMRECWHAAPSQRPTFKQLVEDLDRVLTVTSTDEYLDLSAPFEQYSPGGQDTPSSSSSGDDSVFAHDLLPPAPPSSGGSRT
row,Binder,binding result
1,B2,no binding

# Target: GST-LIM Mystique PDZ domain 1 (human)
# Experiment: modified ELISA, GST-PDZ captured by anti-GST, biotinylated MUC1 peptide titrated, HRP-streptavidin
# Text: Titrations to determine relative EC₅₀ values: Peptide corresponding to MUC1 was then titrated against a constant amount of the PDZ domain-containing recombinant proteins identified in the first part of this example.
# GST-LIM Mystique PDZ domain 1 (human), sequence (chain, as listed by the source limits assumed): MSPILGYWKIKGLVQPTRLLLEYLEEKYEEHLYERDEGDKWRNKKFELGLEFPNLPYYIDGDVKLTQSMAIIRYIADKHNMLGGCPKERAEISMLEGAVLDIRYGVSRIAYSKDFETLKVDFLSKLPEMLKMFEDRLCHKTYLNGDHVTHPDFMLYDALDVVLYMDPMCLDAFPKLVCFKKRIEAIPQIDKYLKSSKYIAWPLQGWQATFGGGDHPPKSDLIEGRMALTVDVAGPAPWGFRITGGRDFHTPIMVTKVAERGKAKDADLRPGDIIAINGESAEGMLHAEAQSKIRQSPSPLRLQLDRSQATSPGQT
row,Binder,EC50
1,B3,10 nM

# Target: T1, GST-RIM2 (KIAA0751) PDZ domain 1
# Experiment: modified ELISA, plated GST-RIM2 PDZ domain, biotinylated peptide 0.001-10 µM, curve fit; Relative EC50
row,Binder,EC50
1,B4,13 nM
2,B5,68 nM
3,B6,135 nM
4,"YGRKKRRQRRRLQRRRETQV (also: biotinylated, position not given here, TAT plus 9 residues) [YGRKKRRQRRRLQRRRETQV (AVC#1856)]",33 nM
5,B7,< 10 nM
6,B8,600 nM
7,B1,40 nM
8,B9,10 nM
9,B10,< 10 nM
10,B11,< 10 nM
11,B12,22 nM
12,B13,78 nM
13,B14,< 10 nM
14,B15,~30 nM
15,"YGRKKRRQRRRARGDRKRIV (also: biotinylated, position not given here, also called AVC#1796; AVC 1796) [YGRKKRRQRRRARGDRKRIV (SEQ ID NO: 136)]",20 nM
16,B16,13 nM
17,B17,30 nM
18,B18,37 nM

row,Binder,EC50
1,B19,47 nM
2,B20,13 nM
3,B21,10 nM
4,B22,45 nM
5,B23,< 10 nM
6,B24,< 10 nM
7,B25,38 nM
8,B26,8 nM
9,B27,7 nM
10,B28,132 nM
11,B29,47 nM
12,B30,40 nM
13,B31,45 nM
14,B32,880 nM
15,"YGRKKRRQRRRQDEEEGIWA (also: biotinylated, position not given here, also called AVC#1790; AVC 1790) [YGRKKRRQRRRQDEEEGIWA (SEQ ID NO: 137)]",5 nM
16,B33,240 nM
17,B34,50 nM
18,B35,90 nM
